Test results from paper PMC2114734.

Target: High affinity thrombin receptor of NIL hamster fibroblasts (Syrian hamster (endogenous in NIL cells))
Assay: radioligand binding

## Human alpha-thrombin (from UniProt P00734 364-622; P00734 364-622) (enzyme)
  specific 125I-thrombin binding (cpm/ug protein): 439
